From the supplement of paper PMC9170038 come the findings set out here.

This data set has as its system MS2 coat protein. Description: apparent KD of MS2 coat protein; higher = weaker reporter binding. The note with it: Eterna round: R107. In outline: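 Apparent KD is reported per design as the median of normalised binding-curve fits across its clusters. The RNA switches were made by on-chip transcription from Illumina sequencing clusters. SNAP-549-labelled MS2 coat protein was then added in twofold steps (0.7 or 1.5 nM to 3 µM; 0.8–1.5 h to 10–20 min per step) in 100 mM Tris-HCl pH 7.5, 80 mM KCl, 4 mM MgCl2, without or with constant ligand.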

Setting [1] is: input ligand: theophylline 20 uM.
The mark [2] stands for this setting: input ligand: theophylline 2 mM.
Setting [3] is: input ligand: tryptophan 2.4 mM.

On to “AGUACAUGAGGAUCACCCAUGUAUCGGUACCGAGGACCGGUACGGCCGCCACUCGCAGGACAUGAGGAUCACCCAUGUGCCGCCG [SSTA DOUBLE!!! :-D #9]”, for which the “apparent KD of MS2 coat protein” value is, setting by setting: (input ligand: arginine 13.2 mM) 13.9 nM; under setting [1], 22.6 nM; under setting [2], 22.4 nM.
Regarding “CUUGUGGUCGGAAGGAGCGCGAUUACAUAACAUGAGGAUCACCCAUGUAAGAAAUUAUUCAUGCAGGUAGGUCGCCGGUCGUGGG [Same State Arginine B GF10]”, the “apparent KD of MS2 coat protein” value (input ligand: arginine 13.2 mM) was 22 nM; the “apparent KD of MS2 coat protein” value (input ligand: none) was determined as 21.4 nM; the “apparent KD of MS2 coat protein” value under setting [1] was found to be 29.6 nM; the “apparent KD of MS2 coat protein” value under setting [2] came to 22.6 nM; the “apparent KD of MS2 coat protein” value under setting [3] turned out to be 21.8 nM.
As for “ACAUGAGGAUCACCCAUGUAACAACGGGAAGGAGCGCCAAACAAGGCAGGUAGGUCGCCCACAUGAGGAUCACCCAUGUGUUGGG [Exclusion Arginine A GF 27]”, the “apparent KD of MS2 coat protein” value runs as follows: (input ligand: arginine 13.2 mM) 30.7 nM; (input ligand: none) 30 nM; under setting [1], 40.7 nM; under setting [2], 39.1 nM; under setting [3], 28.8 nM.
For the sequence “CUCAUCCACGCGGCCGCCACUAUAUUGUGGUGUGAAUGUGACGUAUUACAUGAGGAUCACCCAUGUAGGACCGGGCGUGGAUGAG [#07 Exclusion Tryptophan B]”, the “apparent KD of MS2 coat protein” value worked out at 55.8 nM (input ligand: arginine 13.2 mM), 86.2 nM under setting [1] and 93.5 nM under setting [2].
With “UGUAUGGACUGAAGGAGCGGGUUGAUAACUUGAGGAUCACCCAGGUAAAAGGCGAAAGCCACCCAGGUAGGUCGCAGUCCAUACU”, the “apparent KD of MS2 coat protein” value was 52.6 nM (input ligand: arginine 13.2 mM); 57.9 nM (input ligand: none); 58.2 nM under setting [1]; 69.2 nM under setting [2]; 66.2 nM under setting [3].
Turning to “AGUAUCAGUGGAAGGAGCGUCGCGACUGCCACAUGAGGAUCACCCAUGUCGCCUUGAGCGCGACAGGUAGGUCGCCACGGUAGGC [SS-ArgB2]”, the “apparent KD of MS2 coat protein” value reads like this: (input ligand: arginine 13.2 mM) 29.1 nM; (input ligand: none) 301 nM; under setting [1], 213 nM; under setting [2], 499 nM; under setting [3], 289 nM.
Take “ACAUGAGGAUCACCCAUGUAGCGUAGGGAAGGAGCGGAAUAGAGUCCAGGUAGGUCGCCCAUAUGAUGAUCUCACUUAUUAUCGA [#13 Same State - Arginine A]”: the “apparent KD of MS2 coat protein” value reads like this: (input ligand: arginine 13.2 mM) 39.1 nM; (input ligand: none) 21.1 nM; under setting [1], 36.7 nM; under setting [2], 40.8 nM; under setting [3], 22.9 nM.
The corresponding values for “ACAUUUAACUGAAGGAGCGUGAUAUACAUGAGGAUCACCCAUGUGUCUUACAUGAAUAAUUCACAGGUAGGUCGCAGACUAAUGA [JR_ExcArginiB_Sub009]” are 30.5 nM, 26.7 nM, 33.7 nM, 39.4 nM and 32.1 nM.
“UUUUCAGGGUCGGCCGCCACUGGUAUGGCGAGUCCUCGAACAAACAUGAGGAUCACCCAUGUGAACAGGACCGGGACAGCAUGGG [Exclusion Tryptophan B GF 21]”: the “apparent KD of MS2 coat protein” value (input ligand: arginine 13.2 mM) amounted to 97.2 nM; the “apparent KD of MS2 coat protein” value (input ligand: none) is 380 nM; the “apparent KD of MS2 coat protein” value under setting [1] is 538 nM; the “apparent KD of MS2 coat protein” value under setting [2] came to 645 nM; the “apparent KD of MS2 coat protein” value under setting [3] came out at 286 nM.
For the sequence “UGACAUUGCUCAGAUACCAGACGUGAGCAUCAGCCAUGUGCCAACAAGUACAAAAUAAAUGUCCCUUGGCAGCUGAGCAAUGUCU [TheoBX 22 #MS2Left #AlternativeMS2 #Theo22]”, the “apparent KD of MS2 coat protein” value runs as follows: (input ligand: arginine 13.2 mM) 18.5 nM; under setting [1], 23.4 nM; under setting [2], 175 nM; under setting [3], 16.9 nM.
As to “UAUAUAUACUCGGCCGCCACUGAGAGAGUCAUGUAAACAUGAGGAUCACCCAUGUAAUAUAUAUACAGGACCGGGAGUAUAUUAA [4.A]”, the “apparent KD of MS2 coat protein” value by setting is: (input ligand: arginine 13.2 mM) 19.1 nM; under setting [1], 17.3 nM; under setting [2], 15.8 nM.
In the case of “AAUAACAUGAGGAUCACCCAUGUAAAAGAUACCAGAUGCAUGAUGAUCCCUUGGCAGCUUAACGCUGAUUGAUUACAAUCAGCGA”, the “apparent KD of MS2 coat protein” value (input ligand: arginine 13.2 mM) is 36.5 nM, the “apparent KD of MS2 coat protein” value under setting [1] was 128 nM and the “apparent KD of MS2 coat protein” value under setting [3] came to 26.4 nM.
For the sequence “UAUGCACAUGAGGAUCACCCAUGUAUGGAAGGAGCGGUGAAUAAACCAGGUAGGUCGCCAUUGUGAGGGUCAUCUAUGUAAUCGU [Exclusion - Arginine A (Freestyle 4)]”, the “apparent KD of MS2 coat protein” value came to 58.6 nM (input ligand: arginine 13.2 mM); 85.3 nM (input ligand: none); 125 nM under setting [1]; 133 nM under setting [2]; 91.8 nM under setting [3].
Taken in the same sequence, the figures for “ACAUGAGGAUCACCCAUGUAUUCAUCAGAAGGAGCGUGGAAUAACACAGGUAGGUCGCUGAUUAUUUGUUAAAUAAAAUCGUGUA [JR_Nu_SSArginiA_Sub022]” were 12.5 nM, 17.3 nM, 20.6 nM, 17.1 nM and 18.3 nM.
“AUCACUGUGAAAGAUACCAGCGCCCUACCUAUCUUCUGUUACAUGAGGAUCACCCAUGUUCGCCCUUGGCAGCUUGAGAUGGAUC [theeternabot_exclusion_MS2_Theo_B_11]”: the “apparent KD of MS2 coat protein” value reads like this: (input ligand: arginine 13.2 mM) 44.2 nM; under setting [1], 75.1 nM; under setting [3], 44.9 nM.
With “AGAUUCGACACGGCCGCCACUUGUGGUGGAUUAUCCUGUGUCGAACAUGAGGAUCACCCAUGUACAAGGACCGGGUGUUGAGUCU [XTryp B #20]”, the “apparent KD of MS2 coat protein” value reads like this: (input ligand: arginine 13.2 mM) 60.2 nM; under setting [1], 151 nM; under setting [2], 136 nM.
Turning to “AGAUUCGACACGGCCGCCACUCGUGGAGGAUUACCGAGUGUCGAACAUGAGGAUCACCCAUGUACGAGGACCGGGUGUUGAGUCU [XTryp B #15]”, the “apparent KD of MS2 coat protein” value (input ligand: arginine 13.2 mM) was found to be 23.5 nM; the “apparent KD of MS2 coat protein” value (input ligand: none) came to 27.3 nM; the “apparent KD of MS2 coat protein” value under setting [1] turned out to be 32.2 nM; the “apparent KD of MS2 coat protein” value under setting [2] turned out to be 28.5 nM; the “apparent KD of MS2 coat protein” value under setting [3] amounted to 179 nM.
Turning to “AUUGACAUGAGGAUCACCCAUGUAUCCGAAGGAGCGGCAGAUGUGCCAGGUAGGUCGCGGGUGAAAGAGACAUCGUAGGGUGUCG [Same State - Arginine A / B [only NuPack]]”, the “apparent KD of MS2 coat protein” value came out at 73.9 nM (input ligand: arginine 13.2 mM); 256 nM (input ligand: none); 207 nM under setting [1]; 469 nM under setting [2]; 229 nM under setting [3].
